Reference: publication PMC6393304 (Nucleic Acids Research, 2018)
Positions count from the first letter of the chain named. Names and notes keep the numbering of the source.

B1: C-terminal bZIP domain of human C/EBPβ (residues 269–344), wild type (domain or fragment)
chain: HMKHSDEYKIRRERNNIAVRKSRDKAKMRNLETQHKVLELTAENERLQKKVEQLSRELSTLRNLFKQLPEPLLASSGH
B2: C-terminal bZIP domain of human C/EBPβ (residues 269–344), V285A variant (domain or fragment)
chain: B1 chain with V19A

Biological target: the molecule itself
Assay: crystal structure

| Protein | binding result |
| --- | --- |
| B1 | binds |
| B2 | binds |
